# B1: EGF: Recombinant human epidermal growth factor (EGF) (protein, UniProt P01133 23-1207, looked up)
# Pro-epidermal growth factor: PQHWSCPEGTLAGNGNSTCVGPAPFLIFSHGNSIFRIDTEGTNYEQLVVDAGVSVIMDFHYNEKRIYWVDLERQLLQRVFLNGSRQERVCNIEKNVSGMAINWINEEVIWSNQQEGIITVTDMKGNNSHILLSALKYPANVAVDPVERFIFWSSEVAGSLYRADLDGVGVKALLETSEKITAVSLDVLDKRLFWIQYNREGSNSLICSCDYDGGSVHISKHPTQHNLFAMSLFGDRIFYSTWKMKTIWIANKHTGKDMVRINLHSSFVPLGELKVVHPLAQPKAEDDTWEPEQKLCKLRKGNCSSTVCGQDLQSHLCMCAEGYALSRDRKYCEDVNECAFWNHGCTLGCKNTPGSYYCTCPVGFVLLPDGKRCHQLVSCPRNVSECSHDCVLTSEGPLCFCPEGSVLERDGKTCSGCSSPDNGGCSQLCVPLSPVSWECDCFPGYDLQLDEKSCAASGPQPFLLFANSQDIRHMHFDGTDYGTLLSQQMGMVYALDHDPVENKIYFAHTALKWIERANMDGSQRERLIEEGVDVPEGLAVDWIGRRFYWTDRGKSLIGRSDLNGKRSKIITKENISQPRGIAVHPMAKRLFWTDTGINPRIESSSLQGLGRLVIASSDLIWPSGITIDFLTDKLYWCDAKQSVIEMANLDGSKRRRLTQNDVGHPFAVAVFEDYVWFSDWAMPSVMRVNKRTGKDRVRLQGSMLKPSSLVVVHPLAKPGADPCLYQNGGCEHICKKRLGTAWCSCREGFMKASDGKTCLALDGHQLLAGGEVDLKNQVTPLDILSKTRVSEDNITESQHMLVAEIMVSDQDDCAPVGCSMYARCISEGEDATCQCLKGFAGDGKLCSDIDECEMGVPVCPPASSKCINTEGGYVCRCSEGYQGDGIHCLDIDECQLGEHSCGENASCTNTEGGYTCMCAGRLSEPGLICPDSTPPPHLREDDHHYSVRNSDSECPLSHDGYCLHDGVCMYIEALDKYACNCVVGYIGERCQYRDLKWWELRHAGHGQQQKVIVVAVCVVVLVMLLLLSLWGAHYYRTQKLLSKNPKNPYEESSRDVRSRRPADTEDGMSSCPQPWFVVIKEHQDLKNGGQPVAGEDGQAADGSMQPTSWRQEPQLCGMGTEQGCWIPVSSDKGSCPQVMERSFHMPSYGTQTLEGGVEKPHSLLSANPLWQQRALDPPHQMELTQ
# modifications: Pro-epidermal growth factor
# What was measured:
# SOX2 = SOX2 expression by western blotting / flow cytometry; format: cell-based, human; settings: basal-type cells
# Procedure: Whole cell lysates were extracted using RIPA buffer (Thermo Scientific) supplemented with 10 μL/mL Halt™ Protease Inhibitor Cocktail Kit (Life Technologies) and 30 μL/mL Halt™ Phosphatase Inhibitor Cocktail Kit (Life Technologies). The protein concentrations were determined using a Pierce™ BCA Protein Assay Kit (Life Technologies), and the protein were separated on NuPAGE® 4-12% Bis-Tris Gel (Life Technologies) according to the manufacturer's protocol. […]
# For extracellular staining, cells (1×10^6/100 μL stain buffer) were incubated with PE-Vio770-conjugated anti-human CD133 (293C3; Miltenyi Biotec, Auburn, USA) or PE-conjugated anti-human CD24 antibody (cat #, 560991; BD Biosciences) for 30 min at 4° C. in dark. […] Data were acquired on a BD FACSCalibur flow cytometer (BD Biosciences) using BD CellQuest Pro software (BD Biosciences) and analyzed with FlowJo software v10.1 (Tree Star, Ashland, USA).
# YAP1 = YAP1 expression by western blotting; format: cell-based, human; settings: basal-type cells
# Procedure: Whole cell lysates were extracted using RIPA buffer (Thermo Scientific) supplemented with 10 μL/mL Halt™ Protease Inhibitor Cocktail Kit (Life Technologies) and 30 μL/mL Halt™ Phosphatase Inhibitor Cocktail Kit (Life Technologies). The protein concentrations were determined using a Pierce™ BCA Protein Assay Kit (Life Technologies), and the protein were separated on NuPAGE® 4-12% Bis-Tris Gel (Life Technologies) according to the manufacturer's protocol. COX2 (D5H5), NANOG (D73G4), OCT4 (D7O5Z), CD133 (A3G6K), Snail (C15D3), ZEB1 (D80D3), Vimentin (D21H3), CDH2 (D4R1H), CDH1 (24E10), p-EGFR (D7A5), EGFR (D38B1), p-AKT (D9E), AKT (cat #, 9272), p-ERK (D13.14.4E), ERK (137F5), p-YAP1 (D9W2I), p-Src (cat #, 2101), Src (36D10), DNMT1 (D63A6), DNMT3A (D23G1), and DNMT3B (D7O7O) antibodies were obtained from Cell Signaling Technology (Danvers, Mass., USA), except for SOX2 (EPR3131; Abcam, Cambridge, USA), YAP1 (ab52771; Abcam), CD24 (cat #, AF5247-SP; R&D Systems, Minneapolis USA) and β-actin (A2228; Sigma-Aldrich). Secondary horseradish peroxidase (HRP)-conjugated antibodies were obtained from Cell Signaling Technology, and chemiluminescent detection of HRP-labeled antibodies was performed using Amersham ECL Prime Western Blotting Detection Reagent (GE Healthcare, Piscataway, USA). As loading control, β-actin was used.
molecule,measurement,setting,value
B1,SOX2 expression,SOX2,increased
same,YAP1 expression,YAP1,increased
